Several values for one entry are separate records, joined by “and”; a condition that tells them apart may be missing. Identical values can stand only once.

Experiment [1] deals with recombinant human Axl-Fc chimera (rhAxl-Fc; R&D Systems, Cat. no. 154-AL) (human) (UniProt P30530). The experiment can be described thus: SPR two-injection competition on immobilised Axl-Fc; response expected for the second sample (first: YW327.6S2).
The target is the same in experiment [2]. The experiment can be described thus: SPR two-injection competition on immobilised Axl-Fc; second injection, competitor bound first: YW327.6S2.
Experiment [3] has the same target. The experiment is described as follows: SPR two-injection competition on immobilised Axl-Fc; response expected for the second sample (first: 10G5).
The target is the same in experiment [4]. The experiment is described as follows: SPR two-injection competition on immobilised Axl-Fc; first injection.
The target is the same in experiment [5]. The experiment can be described thus: SPR two-injection competition on immobilised Axl-Fc; second injection, competitor bound first: 10G5.
Experiment [6] has as its target T1, recombinant human Axl-Fc chimera (rhAxl-Fc; R&D Systems, Cat. no. 154-AL) (human, UniProt P30530 26-451).
T1 construct: Bought construct; also called rhAxi-Fc; Hu-Axl-Fc; Fc part of the bought chimera not given
The experiment can be described thus: SPR (Biacore 3000, 25 C), rhAxl-Fc immobilised (190 RU), antibody as analyte, 1:1 Langmuir. For orientation: In SPR one partner is held on a chip, and binding of the other changes the refractive index at the surface.

Experiment [7] addresses T2, recombinant human Mer-Fc chimera (rhMer-Fc; R&D Systems, Cat no. 891-MR) (human, UniProt Q12866 21-505).
T2 construct: Bought construct; Fc part of the bought chimera not given
T2 sequence: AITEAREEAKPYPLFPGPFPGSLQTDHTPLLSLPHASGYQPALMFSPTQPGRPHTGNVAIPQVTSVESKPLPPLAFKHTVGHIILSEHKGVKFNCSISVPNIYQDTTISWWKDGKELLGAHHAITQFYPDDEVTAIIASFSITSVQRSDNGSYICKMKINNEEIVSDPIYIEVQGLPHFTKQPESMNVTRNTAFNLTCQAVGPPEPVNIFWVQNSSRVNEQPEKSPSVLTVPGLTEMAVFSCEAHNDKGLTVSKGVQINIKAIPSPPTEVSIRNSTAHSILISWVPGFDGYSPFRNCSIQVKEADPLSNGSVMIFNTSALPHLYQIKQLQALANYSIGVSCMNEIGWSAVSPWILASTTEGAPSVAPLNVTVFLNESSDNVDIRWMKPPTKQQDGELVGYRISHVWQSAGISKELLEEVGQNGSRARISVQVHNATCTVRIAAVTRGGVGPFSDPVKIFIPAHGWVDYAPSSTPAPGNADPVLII
The experiment can be described thus: Biacore 3000 SPR, rhMer-Fc on a CM5 chip, antibody injected for 3 min; concentration from Example 2, not printed on the sheet.

For experiment [8], the target named is T1, recombinant human Axl-Fc chimera …. The experiment is described as follows: SPR (Biacore), rhAxl immobilised; same values as Table 1.
The target is the same in experiment [9]. The experiment can be described thus: SPR (Biacore 3000, 25 C), rhAxl-Fc immobilised (190 RU), antibody as analyte, koff/kon.
In experiment [10] the target is T3, recombinant human Tyro3/Dtk-Fc chimera (rhTyro3/Dtk-Fc; R&D Systems, Cat no. 859-DK) (human, UniProt Q06418 41-429).
T3 construct: Bought construct; Fc part of the bought chimera not given
T3 sequence: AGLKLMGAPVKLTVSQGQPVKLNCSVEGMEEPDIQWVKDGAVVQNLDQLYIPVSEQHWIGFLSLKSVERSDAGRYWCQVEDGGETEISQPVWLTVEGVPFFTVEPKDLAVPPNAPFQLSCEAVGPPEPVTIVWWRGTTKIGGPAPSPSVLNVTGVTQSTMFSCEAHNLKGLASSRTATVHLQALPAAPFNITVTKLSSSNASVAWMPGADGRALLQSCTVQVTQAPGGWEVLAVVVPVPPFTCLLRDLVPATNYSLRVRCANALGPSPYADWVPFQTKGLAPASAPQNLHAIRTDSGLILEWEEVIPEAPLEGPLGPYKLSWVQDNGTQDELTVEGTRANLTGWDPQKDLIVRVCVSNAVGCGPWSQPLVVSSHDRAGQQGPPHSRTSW
The experiment can be described thus: Biacore 3000 SPR, rhTyro3/Dtk-Fc on a CM5 chip, antibody injected for 3 min; concentration from Example 2, not printed on the sheet.

The target of experiment [11] is T1, recombinant human Axl-Fc chimera …. The experiment can be described thus: SPR (Biacore 3000, 25 C), rhAxl-Fc immobilised; ln2/koff.
The target in experiment [12] is T4, recombinant cyno-Axl-Fc (extracellular domain of Axl from Macaca fascicularis fused to human Fc) (cynomolgus monkey (Macaca fascicularis), UniProt P30530 26-451 (human entry)).
T4 construct: Made by transient expression in CHO cells; also called Axl from cynomolgus monkey; not shown: human Fc
T4 chain: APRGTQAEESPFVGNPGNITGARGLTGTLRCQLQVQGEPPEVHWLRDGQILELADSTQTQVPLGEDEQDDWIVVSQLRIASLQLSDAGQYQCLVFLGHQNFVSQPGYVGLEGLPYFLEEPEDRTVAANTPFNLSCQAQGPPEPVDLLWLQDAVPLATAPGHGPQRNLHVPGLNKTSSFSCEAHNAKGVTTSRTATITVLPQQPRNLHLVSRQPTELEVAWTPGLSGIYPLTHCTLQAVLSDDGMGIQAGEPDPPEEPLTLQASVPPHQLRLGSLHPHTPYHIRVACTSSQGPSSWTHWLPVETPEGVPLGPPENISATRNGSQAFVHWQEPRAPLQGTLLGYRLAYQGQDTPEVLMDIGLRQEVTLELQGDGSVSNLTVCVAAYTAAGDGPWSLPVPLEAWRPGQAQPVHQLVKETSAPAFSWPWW
The experiment is described as follows: Biacore 3000 SPR, cyno-Axl-Fc on a CM5 chip, antibody injected at 10 µg/mL for 3 min, 5 min dissociation [upper panel 10G5].

The target of experiment [13] is T5, human Axl receptor on cells (MDA-MB-231, HeLa, LX2, Axl-positive cells) (human, UniProt P30530 26-894). The experiment is described as follows: cell-based or functional assay.
Experiment [14] addresses T5, human Axl receptor on cells …. The experiment can be described thus: cell-based or functional assay. This is another data set of the same source.
Experiment [15] shares this target. The experiment can be described thus: flow cytometry on MDA-MB-231 cells, APC-conjugated anti-human IgG F(ab')2 detection.
Experiment [16] deals with T1, recombinant human Axl-Fc chimera …. The experiment is described as follows: SPR (Biacore), rhAxl immobilised on the sensor chip, antibody as analyte.
The target in experiment [17] is T5, human Axl receptor on cells …. The experiment is described as follows: flow cytometry titration on MDA-MB-231 cells, Kd of the fitted curve, the axis of the fitted curves is Conc. (nM) [table under the graph].
Experiment [18] has as its target T1, recombinant human Axl-Fc chimera …. The experiment is described as follows: SPR (Biacore), rhAxl immobilised on the sensor chip.
In experiment [19] the target is recombinant human Axl-Fc chimera (rhAxl-Fc; R&D Systems, Cat. no. 154-AL) (human) (UniProt P30530). The experiment is described as follows: SPR two-injection competition on immobilised Axl-Fc; response expected for the second sample (first: Gas6).
For experiment [20] the target is unchanged. The experiment is described as follows: SPR two-injection competition on immobilised Axl-Fc; second injection, competitor bound first: Gas6.
Experiment [21] shares this target. The experiment is described as follows: SPR two-injection competition on immobilised Axl-Fc; second injection, competitor bound first: H2L1.
The target is the same in experiment [22]. The experiment can be described thus: SPR two-injection competition on immobilised Axl-Fc; response expected for the second sample (first: H2L1).

B1: chimeric 1H12 anti-Axl antibody (antibody, from another filing, V domains shown)
VH: EVQLVESGGDLVKPGGSLKLSCAASGFTFSSYGMSWVRQTPDKRLEWVATISSGGSYTYYPDSVKGRFTISRDNAKNTLYLQMSSLKSEDTAMYYCARHPIYYTYDDTMDYWGQGTSVTVSS
VL: ENVLTQSPAIMAASPGEKVTMTCSASSSVSSGNFHWYQQKPGTSPKLWIYRTSNLASGVPARFSGSGSGTSYSLTISSMEAEDAATYYCQQWSGYPWTFGGGTKLEIK
Regarding B1, the Expected response if independent came to 400 in [1] and 220 in experiment [3]. In addition, the 2nd Response came out at 400 in [2] and 180 in [5]. Besides, the 1st Response in [4] was 400 and 220.

B2: mouse monoclonal antibody 10G5 (antibody, V domains shown)
VH: QVQLQQSGAELVRPGASVKLSCKASGYSFTDFYINWVRQRPGQGLEWIARIFPGGDNTYYNEKFKGKATLTAEESSSTAYIQLSSLTSEDSAVYFCARRGLYYAMDYWGQGISVTVSS
VL: DVLMTQTPLSLPVSLGDQASISCRSSQSLVHSNGIPYLHWYLQKPGQSPKLLIYRVSNRFSGVPDRFSGSGSGTDFTLKISRVEAEDLGVYFCSQGTHVPPTFGGGTKLEIK
notes: Whole mouse IgG purified from hybridoma supernatant; also called murine 10G5; MAb 10G5
For the molecule B2, the koff in [6] and in experiment [8] was 0.000439 s⁻¹ throughout. For the same molecule, the kon in experiment [6] and in experiment [8] was 829000 M⁻¹ s⁻¹ each time. Further, the values for the binding result in experiment [7], in experiment [10] and in experiment [12] were “no binding (tested: 10 µg/mL)”, “no binding (tested: 10 µg/mL)” and “binds”, respectively. For the same molecule, the “Half-life (t1/2)” value in experiment [8] and in experiment [11] was 26.3 min in each case. The Kd in experiment [8] and in experiment [9] was 0.53 nM each time.

B3: humanised 10G5 antibody H1L1 (antibody, human IgG1, kappa, V domains shown)
VH: EVQLVQSGAGLVQPGGSVRLSCAASGYSFTDFYINWVRQAPGKGLEWIARIFPGGDNTYYNEKFKGRFTLSADTSSSTAYLQLNSLRAEDTAVYYCARRGLYYAMDYWGQGTLVTVSS
VL: DIQMTQSPSSLSASVGDRVTITCRSSQSLVHSNGIPYLHWYQQKPGKAPKLLIYRVSNRFSGVPSRFSGSGSGTDFTLTISSLQPEDFATYYCSQGTHVPPTFGQGTKVEIKR
notes: H1L1 is read as GH1 heavy chain + GL1 light chain; also called hu10G5 H1L1
In the case of B3, in experiment [13], the “EC50 (pM), tumour cell killing by antibody-Saporin conjugates, as in Example 20” value is 17.1 pM. In experiment [14], the “EC50 (pM), killing of MDA-MB-231 cells by antibody coupled to Saporin (FabFc-ZAP), XTT/PMS viability after 72 hrs” value amounted to 3.44 pM. The “EC50 (read off the curve)” value in experiment [15] is approximately 0.1 nM. For the same molecule, in [16], the Kd was 0.105 nM, the koff came to 0.000161 s⁻¹ and the kon worked out at 1.54e+06 M⁻¹ s⁻¹. The molecule also returned a Kd in experiment [17] of 0.12 nM. Besides, the “Half-life (t1/2)” value in experiment [18] was 71.7 min.

B4: humanised 10G5 antibody H2L1 (antibody, human IgG1, kappa, V domains shown)
VH: EVQLVESGGGLVQPGGSLRLSCAASGYSFTDFYINWVRQAPGKGLEWVARIFPGGDNTYYNEKFKGRFTLSADTSKSTAYLQMNSLRAEDTAVYYCARRGLYYAMDYWGQGTLVTVSS
VL: DIQMTQSPSSLSASVGDRVTITCRSSQSLVHSNGIPYLHWYQQKPGKAPKLLIYRVSNRFSGVPSRFSGSGSGTDFTLTISSLQPEDFATYYCSQGTHVPPTFGQGTKVEIKR
notes: H2L1 is read as GH2 heavy chain + GL1 light chain; also called hu10G5 H2L1; Hu10G5 (H2L1)
In the case of B4, the “EC50 (pM), tumour cell killing by antibody-Saporin conjugates, as in Example 20” value in [13] stood at 2.66 pM. Moreover, the figures for the Expected response if independent in [19] and in [22] were 318 and 323, respectively. Also, the “EC50 (pM), killing of MDA-MB-231 cells by antibody coupled to Saporin (FabFc-ZAP), XTT/PMS viability after 72 hrs” value in experiment [14] turned out to be 2.68 pM. In [15], the “EC50 (read off the curve)” value was approximately 0.2 nM. Further, the Kd amounted to 0.0686 nM in experiment [16] and 0.192 nM in experiment [17]. Further, the koff in experiment [16] was 0.000142 s⁻¹. Also, in [16], the kon was found to be 2.07e+06 M⁻¹ s⁻¹. Moreover, the 2nd Response in experiment [20] was 301; in experiment [21], 8.9. In addition, the 1st Response in [4] worked out at 323. Besides, the “Half-life (t1/2)” value in [18] was found to be 81.4 min.

One may read the koff as a measure of how fast the partners let go of each other. As a reminder, the kon is the rate constant with which the complex forms. By Kd is commonly meant a measure of binding affinity in units of concentration. The term EC50 (read off the curve) denotes the concentration that produces a half-maximal response.

Source of the values: US20220195054A1 (BERGEN TEKNOLOGIOVERF RING, published 2022).
